Results taken from publication PMC7319049 (Nature, 2020).

B3: Swi3 (natural protein)
chain: MENTLGEGSTVNASVDVDQHGNDNNSDSNANAAVAGVANTDTAGEESQQQDESLKDEATVPNTRDAESEAITVTAKQQPTMQANKLDSQETPSTEESRAQNVFGQDNEDSDNLFGETESSVSNNEANTPSIPTNPVDNENNKPAIKEDSTIQDSNGDVKNMEDVKIQKEEEPENNTVIEGVKEESQPDENTKEMDEVEEDDEDDDQPMISPDNSIFGDTKSESKQLGNTSSVANTPSEIPDAHKAEQEDIIEKTESVDKKVDSGEERNEQEREIMNDHSKSANPKKTTITRVEPETFEIPQAHEIVIPSYSKWFNLEKIHSIEVQSLPEFFTNRIPSKTPEVYMRYRNFMVNSYRLNPNEYFSVTTARRNVSGDAAALFRLHKFLTKWGLINYQVDSKLLPKNIEPPLTSQYSTRHDAPRGLFPFESYKPSVQLPDMAKLKKMMNTSDSESTLYKYLKESKRKYDEITHPPSTTDDENGDKNDNGGKMNNEVSTSTSMTGDANLLEEGETSRPLKKVKILEQIDENWSKEDLQKLLKGIQEFGADWYKVAKNVGNKSPEQCILRFLQLPIEDKFLYGDGNGKGDNDNGLGPLKYAPHLPFSKSENPVLSTIAFLVGLVNPKTVQSMTQRAIQSAESIKSQKEEISDQKPIEHIKEGSEIAISSLGYRSHIFATNEERQMNFLTNELIRLQMEKLDAKLNHLKKLEKFMELERKTLERQQENLLIQRLNFNQNSSKIVNVLSKCLNLISDSNINNSSVAEKEEIRSQIDHFKSMLSKPETLSIGKNPFNKPNIETGENHNGQSISNENDVKPISIEAPQFYRYWSA

Experiments:
Test in all cases: cryo-EM structure
Swi1 = target: T1, Swi1 (S. cerevisiae, UniProt P09547 1-1314)
T1 sequence: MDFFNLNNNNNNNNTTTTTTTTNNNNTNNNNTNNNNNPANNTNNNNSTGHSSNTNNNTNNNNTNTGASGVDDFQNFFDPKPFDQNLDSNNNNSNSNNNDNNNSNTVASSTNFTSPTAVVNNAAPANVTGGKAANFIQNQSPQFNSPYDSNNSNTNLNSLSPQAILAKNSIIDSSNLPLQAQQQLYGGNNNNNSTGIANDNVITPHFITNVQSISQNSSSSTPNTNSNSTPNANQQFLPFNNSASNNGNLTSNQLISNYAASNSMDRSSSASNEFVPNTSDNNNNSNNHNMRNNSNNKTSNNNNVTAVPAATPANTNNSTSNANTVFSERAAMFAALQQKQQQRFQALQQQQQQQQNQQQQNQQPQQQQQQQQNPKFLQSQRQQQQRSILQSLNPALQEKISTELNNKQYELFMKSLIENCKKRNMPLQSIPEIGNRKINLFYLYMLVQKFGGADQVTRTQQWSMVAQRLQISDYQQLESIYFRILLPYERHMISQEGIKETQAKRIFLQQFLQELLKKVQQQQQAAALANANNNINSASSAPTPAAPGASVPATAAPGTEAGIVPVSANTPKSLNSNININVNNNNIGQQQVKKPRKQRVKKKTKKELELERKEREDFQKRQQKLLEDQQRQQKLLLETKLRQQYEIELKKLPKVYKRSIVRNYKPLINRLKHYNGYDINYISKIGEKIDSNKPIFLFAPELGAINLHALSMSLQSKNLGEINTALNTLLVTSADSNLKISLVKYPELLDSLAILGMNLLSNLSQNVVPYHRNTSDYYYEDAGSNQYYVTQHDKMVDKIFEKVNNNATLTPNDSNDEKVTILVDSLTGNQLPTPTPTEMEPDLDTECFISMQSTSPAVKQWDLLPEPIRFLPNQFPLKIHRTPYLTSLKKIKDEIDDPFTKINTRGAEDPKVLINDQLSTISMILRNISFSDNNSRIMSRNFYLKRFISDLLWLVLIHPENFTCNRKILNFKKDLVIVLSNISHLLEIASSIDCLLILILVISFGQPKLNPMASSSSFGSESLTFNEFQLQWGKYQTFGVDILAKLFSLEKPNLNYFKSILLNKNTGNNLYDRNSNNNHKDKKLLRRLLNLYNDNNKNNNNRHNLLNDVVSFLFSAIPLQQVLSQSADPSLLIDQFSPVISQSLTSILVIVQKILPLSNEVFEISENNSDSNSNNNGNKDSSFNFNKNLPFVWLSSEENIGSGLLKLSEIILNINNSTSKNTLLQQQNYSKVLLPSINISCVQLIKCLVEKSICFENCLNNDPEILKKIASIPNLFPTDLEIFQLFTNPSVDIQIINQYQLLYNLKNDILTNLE

Swi3 = target: B3
Snf5 = Snf5 (S. cerevisiae, UniProt P18480 1-905)
Chain of Snf5 (P18480 whole entry): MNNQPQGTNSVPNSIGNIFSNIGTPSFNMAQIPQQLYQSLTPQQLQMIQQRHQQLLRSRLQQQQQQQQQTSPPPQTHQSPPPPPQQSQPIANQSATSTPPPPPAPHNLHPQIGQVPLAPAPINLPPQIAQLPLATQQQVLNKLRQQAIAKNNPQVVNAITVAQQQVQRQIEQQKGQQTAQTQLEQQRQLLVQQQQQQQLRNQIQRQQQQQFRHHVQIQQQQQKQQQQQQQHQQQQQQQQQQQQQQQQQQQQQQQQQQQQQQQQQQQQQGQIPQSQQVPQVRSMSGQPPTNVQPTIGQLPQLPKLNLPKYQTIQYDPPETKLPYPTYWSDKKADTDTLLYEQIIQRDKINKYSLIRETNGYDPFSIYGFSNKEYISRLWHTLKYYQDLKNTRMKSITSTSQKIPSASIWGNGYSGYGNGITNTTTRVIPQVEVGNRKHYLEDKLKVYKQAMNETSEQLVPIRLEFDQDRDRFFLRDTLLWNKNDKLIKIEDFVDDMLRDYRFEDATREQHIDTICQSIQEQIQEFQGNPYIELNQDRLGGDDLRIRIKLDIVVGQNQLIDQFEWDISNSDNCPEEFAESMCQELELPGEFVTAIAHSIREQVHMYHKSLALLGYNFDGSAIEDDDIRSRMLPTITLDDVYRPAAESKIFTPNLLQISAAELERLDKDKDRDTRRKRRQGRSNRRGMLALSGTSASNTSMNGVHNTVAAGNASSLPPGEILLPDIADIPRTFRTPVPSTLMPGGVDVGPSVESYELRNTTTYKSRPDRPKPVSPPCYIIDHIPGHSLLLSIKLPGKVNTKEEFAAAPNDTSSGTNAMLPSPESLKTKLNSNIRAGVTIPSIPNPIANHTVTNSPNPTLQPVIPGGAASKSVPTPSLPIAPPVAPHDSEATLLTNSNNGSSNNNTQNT

Snf2 = Snf2 (S. cerevisiae, UniProt P22082 1-1703)
Chain of Snf2 (P22082 whole entry): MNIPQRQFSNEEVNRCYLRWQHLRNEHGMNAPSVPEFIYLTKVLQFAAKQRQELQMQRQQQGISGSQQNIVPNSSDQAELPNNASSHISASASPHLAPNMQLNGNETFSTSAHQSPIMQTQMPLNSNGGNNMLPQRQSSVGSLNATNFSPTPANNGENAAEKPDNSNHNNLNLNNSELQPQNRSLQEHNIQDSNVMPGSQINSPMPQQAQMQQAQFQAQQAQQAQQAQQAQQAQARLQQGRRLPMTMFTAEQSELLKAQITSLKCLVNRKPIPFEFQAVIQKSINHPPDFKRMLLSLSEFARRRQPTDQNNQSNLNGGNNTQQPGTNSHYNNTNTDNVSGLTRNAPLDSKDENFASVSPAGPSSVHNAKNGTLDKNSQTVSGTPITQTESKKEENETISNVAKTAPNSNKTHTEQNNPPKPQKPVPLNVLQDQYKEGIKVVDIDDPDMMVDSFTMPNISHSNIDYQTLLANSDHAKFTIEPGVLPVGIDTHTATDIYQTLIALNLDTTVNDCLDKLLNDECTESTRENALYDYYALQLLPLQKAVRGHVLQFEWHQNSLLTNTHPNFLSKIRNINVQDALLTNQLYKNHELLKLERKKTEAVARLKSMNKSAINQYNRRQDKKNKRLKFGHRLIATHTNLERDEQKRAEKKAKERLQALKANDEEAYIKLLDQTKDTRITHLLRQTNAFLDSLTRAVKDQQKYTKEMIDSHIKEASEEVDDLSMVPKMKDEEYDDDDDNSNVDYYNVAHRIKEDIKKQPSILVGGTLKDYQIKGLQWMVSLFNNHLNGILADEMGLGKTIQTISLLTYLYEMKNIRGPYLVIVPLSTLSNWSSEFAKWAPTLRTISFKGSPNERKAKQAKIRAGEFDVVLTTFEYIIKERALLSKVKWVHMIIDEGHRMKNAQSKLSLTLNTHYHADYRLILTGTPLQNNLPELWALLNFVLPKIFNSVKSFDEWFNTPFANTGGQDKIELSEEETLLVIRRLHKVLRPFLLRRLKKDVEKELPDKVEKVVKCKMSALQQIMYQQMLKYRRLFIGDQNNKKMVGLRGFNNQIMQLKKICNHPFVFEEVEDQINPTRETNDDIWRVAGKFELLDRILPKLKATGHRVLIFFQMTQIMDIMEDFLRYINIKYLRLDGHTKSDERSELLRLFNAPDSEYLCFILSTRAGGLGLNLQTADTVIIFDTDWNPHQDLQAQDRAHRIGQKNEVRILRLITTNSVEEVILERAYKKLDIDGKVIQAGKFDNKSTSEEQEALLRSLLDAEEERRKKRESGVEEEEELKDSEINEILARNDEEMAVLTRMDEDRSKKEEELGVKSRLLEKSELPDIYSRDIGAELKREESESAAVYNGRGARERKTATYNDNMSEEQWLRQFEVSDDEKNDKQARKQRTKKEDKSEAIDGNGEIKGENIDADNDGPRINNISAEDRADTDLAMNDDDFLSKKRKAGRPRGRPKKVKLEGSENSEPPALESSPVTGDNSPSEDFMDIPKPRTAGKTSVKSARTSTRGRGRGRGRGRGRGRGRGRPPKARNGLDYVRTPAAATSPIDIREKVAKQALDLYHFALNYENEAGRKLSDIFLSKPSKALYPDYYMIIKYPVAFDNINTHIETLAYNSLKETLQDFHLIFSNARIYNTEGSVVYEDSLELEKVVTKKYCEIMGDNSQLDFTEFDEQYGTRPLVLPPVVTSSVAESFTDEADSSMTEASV

cryo-EM structure = target: the molecule itself

B1: Snf12 (natural protein)
chain: MSKVMKPSNGKGSRKSSKAATPDTKNFFHAKKKDPVNQDKANNASQITPTVPHSHPSDMVIPDHLAELIPELYSFQQLVDSEKRLDHFIHLRNLHMKRMVAQWERSKLSQEFLYPHLNFPNVKFLRIFISNVSENQPWQMDTNNEADLMALENATWTMRIEGRLLDNVQANDPAREKFSSFIESIVVDFKNKENDNVPSTKFNAAPEENATEGPSDKKLNLNLPLQFSLPNGDNSTTTNTDQNNATMGEETAKKDMSSTTPKLESVKWQYDPNNPVDFDGLDIKRVGSENVECTISILRKSSPEEPFMSYSPQLTAIIGLKSGTSHDAIFSIYKYIHLNELLTNDESAFENLMGNRNNHNSNTSTSKMLDAASSQVSIVKLDTQLITLLPSSLKESSPDTMKLTDLLSLINSTHLLPLQPIEIDYTVRVDKASTYGELVLDIEVPDVNALKFNNTQRESQIGAAELNENARELEQIKPKIALQDKEITSVLSNLHESNKRYRFFKKISEDPVKALNECIASTSNALKVLSGDEGYNEDMVRRANFYKENEAMLRENIEVILSNGRM
binding result (Swi1): binds
binding result (Swi3): binds

B2: Swp82 (natural protein)
chain: MLGEDEGNTVLEKGNNPSVKQGEVGAVFIVPKILIREHERVILKQILQILDQDELVQPPLDKFPYKKLELPKYIDELKTRDATNTSYKMIQLDAYGEKKVGSNGELFGGRHYLFNTFTFTAHMGVLLVLLQDVIKVLYQSNATHDEDEFIVQHDQILVMETSEEQTKFLAKNGVIPEESKGSFKYITARSAFVEFGASVIAGGQRIVDDYWESLAKKQNLSSHQRVFKLSTNLISKISLLRPSFQNNRISNANEISANTNNTCTISTSKFESQYPIVTEQPSAEIREAYIENFAKGEHISAIVPGQSISGTLELSAQFRVPRYHSKNSFQQALQMKAMDIPIGRHEELLAQYESQAPDGSASISLPNHIPSVNPSNKPIKRMLSSILDINVSSSKNKKSEENEMIKPMNKGQHKNNTSLNINGWKFESLPLKSAENSGKQQYYRGLPLYEKNTLLERLKQLTPNEIKELEHLHDAVFVNTGLQNVRKVRTKKWKKYWQYKAGIPIGLKRSQLDEFKNKYLKDVLAQTSVTTNFNEITNTDETITTKRVPNPNFLGNCNIKDFKPPYIYSHVNKVPQNVAGDKTAVKLDTEVKNTNANPVVATDPVAAKPDNLANFSNEVAMNN
binding result (Swi3): binds
binding result (Snf5): binds

B3
binding result (Snf2): binds
binding result (Swi1): binds
binding result (Snf5): binds
stoichiometry N (cryo-EM structure): 2
